The values that follow come from PMC3840220.

The test deals with bromelain-released influenza hemagglutinin (X31) (influenza virus X31). Description: […].

“bromelain-released influenza hemagglutinin (X31) (domain or fragment)”: the stoichiometry N worked out at 3.

One may read the stoichiometry N as the number of molecules, sites or subunits per partner or assembly.
